This note sets out measurements from patent US20240010712A1 (published 2024).

In test [1] the target is SF370 bacterial surface (Streptococcus pyogenes strain SF370 (emm1 serotype)). In words: binding to SF370 bacteria, fitted binding curve; unit printed nM-1; ±261; non-specific control IgG (Fc binding).
The target in test [2] is T1, M1 protein on the surface of Streptococcus pyogenes strain SF370 (Streptococcus pyogenes strain SF370 …).
T1 chain: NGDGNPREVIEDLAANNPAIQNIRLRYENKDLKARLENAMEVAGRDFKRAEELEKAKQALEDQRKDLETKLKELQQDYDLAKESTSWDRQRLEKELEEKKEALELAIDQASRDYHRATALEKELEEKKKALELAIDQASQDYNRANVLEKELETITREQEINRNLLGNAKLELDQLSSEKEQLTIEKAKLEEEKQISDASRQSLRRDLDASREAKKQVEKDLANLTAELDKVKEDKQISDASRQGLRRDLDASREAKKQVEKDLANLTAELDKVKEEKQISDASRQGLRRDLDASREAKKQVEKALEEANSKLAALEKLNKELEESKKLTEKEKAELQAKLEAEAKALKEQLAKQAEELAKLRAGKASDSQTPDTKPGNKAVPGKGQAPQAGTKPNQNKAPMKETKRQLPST
In words: binding to SF370 bacteria, fitted binding curve; unit printed nM-1; ±2.9; F(ab')2.

Test [3] concerns the target T1, M1 protein on the surface of …. In words: binding to SF370 bacteria, fitted binding curve; unit printed nM-1; ±30.3; Fab.
The target is the same in test [4]. Kind of test: binding to SF370 bacteria, fitted binding curve; unit printed nM-1; ±1.2; F(ab')2.
The target is the same in test [5]. Described as above.

Turning to Xolair IgG, in test [1], the Kd was found to be 3170 nM.

B1: Ab32 F(ab')2 fragments (IdeS-cleaved Ab32) (antibody, V domains shown)
VH: EVQLVESGGGLVRPGGSLRLSCVASGFMFNEYYMSWIRQAPGKGLEWISFISNAGTYTNYAESVKGRFTISRDNAKDSLYLEMNSLRGEDTAVYYCARQGFDTRGEDAFEIWGQGTMVTVSS
VL: EIVLTQSPATLSLSPGERATLSCRASQPLSGYLAWYQQKPGQAPRLLIYNASKRATGIPARFTGSGSGTDFTLTISSLESEDFAVYYCQQRSGWPSIFTFGPGTKVDIKR
Consider B1, for which the Kd in test [2] was 9.1 nM.

B2: Ab49 single Fabs (IgdE-cleaved Ab49) (Fab, V domains shown)
VH: EVQLVESGGGLVQPGGSLRLSCAASGFTVSINYMSWVRQAPGKGLQWVSVIYSGGSTYYADSVKGRFTISRDNSKNTLYLQMNSLRAEDTAMYYCVRDSRFWGIFDYWGQGTLVTVSS
VL: EIVLTQSPATLSLSPGERATLSCRASQSVSSYLAWYQRKPGQAPRLLIYDASNRATGIPARFSGSGSGTDFTLTISSLEPEDFAVYYCQQRSNWPPTFGQGTKVEIKR
In test [3], B2 yielded a Kd of 208 nM.

B3: Ab49 F(ab')2 fragments (IdeS-cleaved Ab49) (antibody, V domains shown)
VH: B2 VH
VL: B2 VL
Regarding B3, the dissociation constant Kd in test [4] and in test [5] was 12.3 nM throughout.

By Kd is commonly meant the concentration at which binding is half-saturated. A low value points to a tighter complex.
